# Experimental data as given in the RNAGym collection of RNA variant scans (doi:10.1021/acssynbio.7b00057).
# B1: Pistol ribozyme (parent)
# chain: GGGUCGUUGUUCCAUAAUCGCGUGGAUAUGGCACGCAAGUUUCUACCGGGCACCGUAAAUGUCCGACUGGAGCCGUUCGGGCGGCUAUAAACAGACCUCAGGCCCGAAGCGUGGCGGCACCUGCCGCCGGUGGUAAAAAAGAUCGGAAGAGCACACGUCU
# Variants of: B1
# Assay: aptazyme ON/OFF ratio, guanine; higher = stronger switching; co-transcriptional cleavage with and without guanine
row,Variant,aptazyme ON/OFF ratio
1,U7A U8G G9U U10A U11A C12A C13A,1.24
2,U7G U8C U10G C12U,1.36
3,U7A U8C G9A U10A U11A C12G C13G,1.13
4,U7G U8G G9A U11G C12U C13U,1.4
5,U7A U8G G9A U10G U11G C12A,1.46
6,U7G U8C G9A U10A C12G,1.24
7,U7C U8A U11C C12G C13U,1.3
8,U7G U8A U10A C12G C13U,1.47
9,U8C G9C U10G U11C C12A,1.22
10,U7G G9C U10A U11A C12A C13A,1.36
11,U8A G9U C12G C13A,1.21
12,U8A G9C U10G U11A C12A C13A,1.18
13,U7A C12G C13A,1.38
14,U7A G9C U10A C12A C13G,1.09
15,G9U U10C U11C C12U,1.31
16,U7C U8C G9U U10A U11C C12U,1.19
17,G9U U10G U11G C12G C13G,1.31
18,U7A G9A U10G U11A C13U,1.06
19,U7A G9C U10C U11A C12G C13U,1.25
20,U7C G9C U10C U11G C12A C13A,1.14
21,U7C U8G G9U U10A C12A,1.33

row,Variant,aptazyme ON/OFF ratio
1,U7C G9U U10C U11A C12A C13U,1.15
2,U7C U8A G9U U10C U11C C12A C13G,1.29
3,U8C G9U U11A C13U,1.33
4,U7C U8A U11G,1.18
5,U7C G9U U10A U11A C12G,1.29
6,U7G U8C G9C U10G U11A C12A C13U,1.25
7,U7C G9U U10A U11C C12A C13G,1.14
8,U8G U10A C12A C13A,1.26
9,U7C U8A G9U U10A U11G C12A C13A,1.09
10,U7C U8C G9U U10A U11C C13U,1.1
11,U7G U8G G9A U10G C12U C13G,1.31
12,U7A G9U U10G U11C C12G C13U,1.31
13,U8G U10G U11G C12A C13A,1.08
14,U7C U8A G9U U10A U11C C13U,1.06
15,U7A U8G G9U U10C U11G C12U C13G,1.31
16,U7G U10C U11G C12U C13A,1.11
17,G9A U10C U11A C12A C13A,1.28
18,U7A U8C G9A U10G U11A C13G,1.05
19,U8G U10A U11A C13A,1.2
20,U7C U8A G9A U10A U11G C12G C13U,1.18
21,U7C U8C G9A U10A U11C,1.21

row,Variant,aptazyme ON/OFF ratio
1,U8G U10A U11C C12G C13U,1.33
2,U7A G9A C12G C13A,1.12
3,U7G U8C G9C U10A,2.18
4,U7A U8A G9A U10C U11C C12A C13G,1.04
5,U7G G9U U10A U11C,1.17
6,U7G U8C G9A U11G C12U C13G,1.07
7,U8C G9U U10A U11C C12A,1.37
8,U7C U8A G9A U10G C12G C13G,1.04
9,U8A G9C U10C U11C C12A,1.04
10,U7C U8A G9A U10G U11G C13G,1.05
11,U7A U8C G9U U10C U11C C13A,1.01
12,U7A U8G U11G C13U,1.31
13,U7C U8C G9U U10G U11C C12G C13G,1.17
14,U8C U11A,1.15
15,U7A U8G G9C U10C U11A C13G,1.22
16,U7A U8C U10A U11A C12G,1.23
17,U7A U8G U10G U11A C12G,1.59
18,U7C U8C G9A U10G U11C C13U,1.17
19,U8G G9C U10G C12U,1.06
20,U8A C12G,1.46
21,U8A G9A U10C U11C C12U C13A,1.04

row,Variant,aptazyme ON/OFF ratio
1,U7G U8C G9U U11G C13U,1.41
2,U7A U8A U10C U11G C12G C13U,1.19
3,U7G U8C G9A U10A U11G C12A C13A,1.06
4,U7C U8A G9A U10A U11G C12A C13G,1.09
5,U7A U8C G9U U10A U11A C12U,1.12
6,U8C G9U U10C U11C C12U C13G,1.05
7,U7A U8A G9C U10C U11G C12U C13U,1.06
8,U7C U8C G9C U10G U11G C12G C13G,1.09
9,U7A U8G G9U C12A C13G,1.44
10,U7C U8G U10G U11A C12A,1.21
11,G9U U10G C12A C13U,1.45
12,U7A C12U C13A,1.29
13,U7C G9U U11A C12G C13A,1.2
14,U7G G9U U10G U11C C12G C13G,1.07
15,U7G U8C G9U U10A U11G C12A C13U,1.11
16,U7G G9C U10C U11A C13A,1.24
17,U7A U8G U11A C13G,1.4
18,U8G G9U U11A C13G,1.06
19,U7C U8G U10A U11C C12U C13A,1.1
20,U7C U8G G9A U10A U11G C13G,1.02
21,G9U U10A U11A C13A,1.38
